Reference: US20210238292A1 (VACCINEX, published 2021)
Numbering of substitutions follows the chain as printed. Like-named read-outs stand apart in the source and are kept apart here. One block for each molecule: values may come before it.

What was measured:
[1] = molecular target: human CCR8 (C-C chemokine receptor type 8) expressed on cells (human) (UniProt P51685); experiment: flow cytometry competition on Raji-CCR8 cells; competitor: fluorescently-conjugated BIOLEGEND anti-human CCR8 antibody at a single concentration
Sequence of human CCR8 (C-C chemokine receptor type 8) expressed on cells (human) (P51685 whole entry): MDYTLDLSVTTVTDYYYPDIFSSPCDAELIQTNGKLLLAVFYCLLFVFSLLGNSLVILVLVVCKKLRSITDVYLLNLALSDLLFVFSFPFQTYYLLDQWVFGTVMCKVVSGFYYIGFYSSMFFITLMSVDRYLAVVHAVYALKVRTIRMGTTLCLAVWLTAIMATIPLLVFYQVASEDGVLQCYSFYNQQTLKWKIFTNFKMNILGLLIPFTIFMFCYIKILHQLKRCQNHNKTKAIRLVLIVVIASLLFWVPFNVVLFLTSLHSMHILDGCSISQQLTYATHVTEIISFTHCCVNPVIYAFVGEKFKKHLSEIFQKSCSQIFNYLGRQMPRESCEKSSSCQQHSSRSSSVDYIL

[2] = molecular target: T1, human CCR8 (C-C chemokine receptor type 8) expressed on cells (human, UniProt P51685 1-355); experiment: on-cell affinity, flow cytometry on 293T cells expressing human CCR8
T1 construct: also called HuCCR8
T1 sequence (P51685 whole entry): as above

[3] = molecular target: T1, human CCR8 (C-C chemokine receptor type …); experiment: flow cytometry, HuCCR8-293T cells, fold geomean over secondary alone
[4] = molecular target: T2, cynomolgus monkey CCR8 expressed on cells (cynomolgus monkey, UniProt G7NYJ2 1-355); experiment: on-cell affinity, flow cytometry on 293T cells expressing cyno CCR8
T2 construct: whole, on cells; also called cyno CCR8; CyCCR8
Target sequence in this assay (G7NYJ2 entry or part of it): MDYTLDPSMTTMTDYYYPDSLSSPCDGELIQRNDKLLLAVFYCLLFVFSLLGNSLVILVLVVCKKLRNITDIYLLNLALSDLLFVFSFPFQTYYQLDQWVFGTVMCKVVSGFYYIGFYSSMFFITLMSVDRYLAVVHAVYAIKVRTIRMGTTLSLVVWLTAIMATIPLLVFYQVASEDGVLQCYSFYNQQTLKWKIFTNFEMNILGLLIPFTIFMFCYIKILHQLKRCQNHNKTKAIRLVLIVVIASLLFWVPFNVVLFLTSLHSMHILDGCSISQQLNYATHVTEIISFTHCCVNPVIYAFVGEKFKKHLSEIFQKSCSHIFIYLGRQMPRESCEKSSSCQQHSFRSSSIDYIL

Cynomolgus CCR8-ECD-Fc [5] = molecular target: T3, Cynomolgus CCR8-ECD-Fc (cynomolgus monkey); experiment: binding to CyCCR8-ECD-Fc protein, OD 450-570 nm
T3 construct: also called CyCCR8-ECD-Fc; Cynomolgus CCR8-Fc
T3 chain: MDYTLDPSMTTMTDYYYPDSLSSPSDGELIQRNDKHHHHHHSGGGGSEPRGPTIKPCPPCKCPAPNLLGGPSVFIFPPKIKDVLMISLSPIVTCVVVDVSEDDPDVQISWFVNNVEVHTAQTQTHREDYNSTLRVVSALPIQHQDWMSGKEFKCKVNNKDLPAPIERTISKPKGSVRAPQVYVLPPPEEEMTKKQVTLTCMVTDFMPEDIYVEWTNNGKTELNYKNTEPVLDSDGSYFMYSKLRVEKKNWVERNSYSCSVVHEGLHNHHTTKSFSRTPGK

Human CCR8-ECD-Fc [6] = molecular target: T4, Human CCR8-ECD-Fc (human); experiment: binding to HuCCR8-ECD-Fc protein, OD 450-570 nm
T4 construct: also called HuCCR8-ECD-Fc; huCC8-ECD-Fc
T4 chain: T3 chain with P7L, M9V, M12V, S20I, L21F, G27A, R32T, D34G

[7] = molecular target: T2, cynomolgus monkey CCR8 expressed on …; experiment: flow cytometry, CyCCR8-293T cells, fold geomean over secondary alone
Human CCR8-ECD-Fc [8] = molecular target: T4, Human CCR8-ECD-Fc; experiment: binding to HuCCR8-ECD-Fc protein, OD 450-570 nm
[9] = molecular target: T1, human CCR8 (C-C chemokine receptor type …); experiment: flow cytometry, HuCCR8-293T cells, fold geomean over secondary alone; remark: listed apart in the source
Cynomolgus CCR8-ECD-Fc [10] = molecular target: T3, Cynomolgus CCR8-ECD-Fc; experiment: binding to CyCCR8-ECD-Fc protein, OD 450-570 nm
[11] = molecular target: T2, cynomolgus monkey CCR8 expressed on …; experiment: flow cytometry, CyCCR8-293T cells, fold geomean over secondary alone; remark: listed apart in the source
Human CCR8-ECD-Fc [12] = molecular target: T4, Human CCR8-ECD-Fc; experiment: binding to HuCCR8-ECD-Fc protein, OD 450-570 nm
[13] = molecular target: T1, human CCR8 (C-C chemokine receptor type …); experiment: flow cytometry, HuCCR8-293T cells, fold geomean over secondary alone; remark: listed apart in the source
Cynomolgus CCR8-ECD-Fc [14] = molecular target: T3, Cynomolgus CCR8-ECD-Fc; experiment: binding to CyCCR8-ECD-Fc protein, OD 450-570 nm
[15] = molecular target: T2, cynomolgus monkey CCR8 expressed on …; experiment: flow cytometry, CyCCR8-293T cells, fold geomean over secondary alone; remark: listed apart in the source
[16] = molecular target: T1, human CCR8 (C-C chemokine receptor type …); experiment: flow cytometry, HuCCR8-293T cells, fold geomean over secondary alone; remark: listed apart in the source
Cynomolgus CCR8-ECD-Fc [17] = molecular target: T3, Cynomolgus CCR8-ECD-Fc; experiment: binding to CyCCR8-ECD-Fc protein, OD 450-570 nm
Human CCR8-ECD-Fc [18] = molecular target: T4, Human CCR8-ECD-Fc; experiment: binding to HuCCR8-ECD-Fc protein, OD 450-570 nm
Cynomolgus CCR8-ECD-Fc [19] = molecular target: T3, Cynomolgus CCR8-ECD-Fc; experiment: binding to CyCCR8-ECD-Fc protein, OD 450-570 nm
[20] = molecular target: T2, cynomolgus monkey CCR8 expressed on …; experiment: flow cytometry, CyCCR8-293T cells, fold geomean over secondary alone; remark: listed apart in the source
Human CCR8-ECD-Fc [21] = molecular target: T4, Human CCR8-ECD-Fc; experiment: binding to HuCCR8-ECD-Fc protein, OD 450-570 nm
[22] = molecular target: T1, human CCR8 (C-C chemokine receptor type …); experiment: flow cytometry, HuCCR8-293T cells, fold geomean over secondary alone; remark: listed apart in the source
[23] = molecular target: T1, human CCR8 (C-C chemokine receptor type …); experiment: on-cell affinity, flow cytometry on 293T cells expressing human CCR8; remark: listed apart in the source
Cynomolgus CCR8-ECD-Fc [24] = molecular target: T3, Cynomolgus CCR8-ECD-Fc; experiment: binding to CyCCR8-ECD-huFc protein (so in the source), OD45-570nm (so in the source)
[25] = molecular target: T5, mouse CCR8 expressed on 293T cells (mouse, UniProt P56484 1-353); experiment: flow cytometry, mouseCCR8-293T cells, fold geomean over secondary alone
T5 construct: whole, on cells
T5 sequence (looked up): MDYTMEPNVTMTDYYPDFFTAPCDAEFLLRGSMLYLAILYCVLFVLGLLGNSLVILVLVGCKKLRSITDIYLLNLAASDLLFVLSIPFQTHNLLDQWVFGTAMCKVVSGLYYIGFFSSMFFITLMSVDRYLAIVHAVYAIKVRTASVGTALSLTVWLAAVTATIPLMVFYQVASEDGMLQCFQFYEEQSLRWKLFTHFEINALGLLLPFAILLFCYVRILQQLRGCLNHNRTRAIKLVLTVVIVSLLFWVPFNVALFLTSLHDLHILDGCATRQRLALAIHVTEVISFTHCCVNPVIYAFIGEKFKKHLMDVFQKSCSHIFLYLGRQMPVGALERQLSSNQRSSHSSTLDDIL

Human CCR8-ECD-Fc [26] = molecular target: T4, Human CCR8-ECD-Fc; experiment: binding to HuCCR8-ECD-moFc protein (so in the source), OD45-570nm (so in the source)
[27] = molecular target: T5, mouse CCR8 expressed on 293T cells; experiment: flow cytometry, mouseCCR8-293T cells, fold geomean over secondary alone; remark: listed apart in the source
Cynomolgus CCR8-ECD-Fc [28] = molecular target: T3, Cynomolgus CCR8-ECD-Fc; experiment: binding to CyCCR8-ECD-huFc protein (so in the source), OD45-570nm (so in the source)
Human CCR8-ECD-Fc [29] = molecular target: T4, Human CCR8-ECD-Fc; experiment: binding to HuCCR8-ECD-moFc protein (so in the source), OD45-570nm (so in the source)
[30] = molecular target: T2, cynomolgus monkey CCR8 expressed on …; experiment: on-cell affinity, flow cytometry on 293T cells expressing cyno CCR8; remark: listed apart in the source
Target sequence in this assay (G7NYJ2 entry or part of it): as the sequence (G7NYJ2 entry or part of it) above

IC50 (read off the curve) [1]: 0.03 µg/mL
Molecule: Biolegend control (antibody)

Kd [2]: 2.5 nM
EC50 (read off the curve) [3]: ~0.4 µg/mL
Kd [4]: 3.9 nM
EC50 (read off the curve) (Cynomolgus CCR8-ECD-Fc [5]): ~0.03 µg/mL
EC50 (read off the curve) (Human CCR8-ECD-Fc [6]): ~0.03 µg/mL
EC50 (read off the curve) [7]: ~1 µg/mL
B1: anti-CCR8-2-3 (antibody, V domains shown)
VH: EVQLVESGGGLVQPGRSLRLSCAASGFTFDDYAMHWVRQAPGKGLEWVSGISWNSGSIGYADSVKGRFTISRDNSKNSLYLQMNSLRAEDTALYYCARGRKSYRDSLRFDYWGQGTLVTVSS
VL: QSVLTQPPSVSAAPGQKVTISCSGSSSNIGNNYVSWYQQLPGTAPKLLIYDNNKRPSGIPDRFSGSKSGTSATLGITGLQTGDEADYYCGTWDSSLSAWVFGGGTKLT
notes: Human IgG from a mammalian expression vector in CHO cells; also called heavy chain H23499

Kd [2]: 1.5 nM
Kd [4]: 2.5 nM
EC50 (read off the curve) (Human CCR8-ECD-Fc [8]): ~0.04 µg/mL
EC50 (read off the curve) [9]: ~0.4 µg/mL
EC50 (read off the curve) (Cynomolgus CCR8-ECD-Fc [10]): ~0.04 µg/mL
EC50 (read off the curve) [11]: ~1 µg/mL
B2: anti-CCR8-2-8 (antibody, V domains shown)
VH: B1 VH with K101R
VL: QSVLTQPPSVSGAPGQRVTISCTGSGSNIGNNYVSWYQQLPGTAPKMLIYDNTRRPSGIPDRFSGSKSDTSATLGITGLQTGDEADYYCGAWDSSLRMWVFGGGTKLTVL
notes: Human IgG

EC50 (read off the curve) (Human CCR8-ECD-Fc [12]): ~0.04 µg/mL
Kd [2]: 2.4 nM
Kd [4]: 3.9 nM
EC50 (read off the curve) [13]: ~0.6 µg/mL
EC50 (read off the curve) (Cynomolgus CCR8-ECD-Fc [14]): ~0.04 µg/mL
B3: anti-CCR8-2-10 (antibody, V domains shown)
VH: B1 VH
VL: QSVLTQPPSVSAAPGQKVTISCSGTSSNIGKNFVSWYQQLPGTAPKLLIYDDNKRPSGIPDRFSGSKSATSATLGITGLQTGDGADYYCGTWDSSLSAWVFGGGTKLTVL
notes: Human IgG

EC50 (read off the curve) [15]: ~0.4 µg/mL
Kd [2]: 1.5 nM
EC50 (read off the curve) [16]: ~0.4 µg/mL
Kd [4]: 3.2 nM
EC50 (read off the curve) (Cynomolgus CCR8-ECD-Fc [17]): ~0.04 µg/mL
EC50 (read off the curve) (Human CCR8-ECD-Fc [18]): ~0.04 µg/mL
B4: anti-CCR8-2-9 (antibody, V domains shown)
VH: B1 VH
VL: B2 VL
notes: Human IgG

EC50 (read off the curve) (Cynomolgus CCR8-ECD-Fc [19]): ~0.04 µg/mL
Kd [2]: 1.3 nM
EC50 (read off the curve) [20]: ~1 µg/mL
EC50 (read off the curve) (Human CCR8-ECD-Fc [21]): ~0.04 µg/mL
EC50 (read off the curve) [22]: ~0.4 µg/mL
Kd [4]: 3.5 nM
B5: anti-CCR8-2-7 (antibody, V domains shown)
VH: B1 VH with K101D, D105K
VL: B2 VL
notes: Human IgG

Kd [23]: 1.06 nM
B6: anti-CCR8-parental-1 (antibody, V domains shown)
VH: QVQLVQSGAEVKKPGASVKVSCKASGYTFTSYYMHWVRQAPGQGLEWMGIINPSGGSTSYAQKFQGRVTMTRDTSTSTVYMELSSLRSEDTAVYYCARGVGNGFRFDYWGQGTLVT
VL: QSALTQPASVSGSPGQSITISCTGTSSDVGSYNLVSWYQQHPGKAPKLMIYEVSKRPSGVSNRFSGSKSGNTASLTISGLQAEDEADYYCSSYAGSSTFVVFGGGTKLTVL
notes: Full-length human IgG; also called parental antibody; H23188/L1037

binding result (Cynomolgus CCR8-ECD-Fc [24]): binds
binding result [25]: no binding (tested: 10 ug/ml)
binding result (Human CCR8-ECD-Fc [26]): binds
Kd [23]: 1.38 nM
B7: anti-CCR8-1-3 (antibody, V domains shown)
VH: B6 VH
VL: B6 VL with A8P, T23S, S31I, M49I, S54I, V60I, S67F, S96P, S97V, F99Y
notes: Parental-1 heavy chain with a shuffled lambda light chain; Human IgG expressed in CHO cells

binding result [27]: no binding (tested: 10 ug/ml)
binding result (Cynomolgus CCR8-ECD-Fc [28]): binds
binding result (Human CCR8-ECD-Fc [29]): binds
Kd [23]: 0.28 nM
Kd [30]: 35.9 nM
B8: anti-CCR8-1-4 (antibody, V domains shown)
VH: B6 VH
VL: QSALTQPASVSGSPGQSITISCSGTSSNIGKYNLVSWYQQHPGEAPTLLIYEATKRPSGVSNRFSGSKSGNTASLTISGLQAEDEADYICSSYAGSRVFVVFGGGTKLTVL
notes: as for B7
